Like-named read-outs stand apart in the source and are kept apart here.
Experiments:
[1] = target: tSH2 domain of SYK (residues M6-N269) fused to an N-terminal 6xHis tag (UniProt P43405); experiment: FRET or BRET
[2] = target: tSH2 domain of SYK (residues M6-N269) fused to an N-terminal 6xHis tag (UniProt P43405); experiment: FRET or BRET; remark: listed apart in the source

Q: Which results are given for “unlabeled FCER1G-phospho-peptide (from UniProt P30273 54-82)”?
A: IC50 [1]: 5 nM; IC50 [2]: 5 nM

Source: article PMC11195132
